In the nanobody polyreactivity screen of Harvey et al. (2022):

Assay: yeast display, Sf9 membrane polyspecificity reagent, FACS + sequencing; frameworks hold sequencing errors
Outline: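 Using colony PCR, genes from sorted yeast display clones were amplified, then sequenced on MiSeq at 2 × 250 and filtered by CDR length. The clones had been stained with 10% biotinylated, detergent-solubilized Sf9 membrane reagent for 1 hour at 4 °C and sorted by FACS into low and high (top ~1%) gates on anti-HA and streptavidin fluorescence. Polyreactivity labels come from the gate of origin.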

Sequence | polyreactivity (PSR sort gate)
QVQLVESGGGLVQAGGSLRIICAASGRIFYGNTMGWYRQAPGKERELVAAITIGDSTNYADSVKGRFTISRDNAKNTVYFQMNSLKPEDTAVYYCAKRNWWGYYNYDYWGQGTQVTVSS | low polyreactivity
QVQLVESGGGLVQAGGSLRIICAASGYIFVRNAMGWYRQAPGKERELVAAISCSGGSTYYADSVKGRFTISRDNAKNTVFLQMNSLKPEDTAVYSCAADYATVTWRGIAYDYWGQGTQVTVSS | low polyreactivity
QVQLVESGGGLVQAGGSLRIICAATGSIFYWNAMGWYRQSPGKEREFVASIRKSGGSTNYADSVKGRFTISRDNAKNTVYLQMTSQKPEDTAVYYCAAYSYYRGTFYDYWGQGTQVTVSS | low polyreactivity
QVQLVESGGGLVQAGGSLRIRCAASGRIFNQYAMGWYRQAPGKERELVASITQRGGRTYYADSVKGRFTISRDNAKNTVYLQMNSLKPEDTAVYYCAKQCYYVTARTGYDYWGQGTQVTVSS | high polyreactivity
QVQLVESGGGLVQAGGSLRISCAASGFIFAHNAMGWYRQAPGKERELVAAITSSGGSTYYADSVKGRFTISRDNAKNTVYLQMNSLKPEDTAVYYCAAYWKLGGFRYGYWGQGTQVTVSS | high polyreactivity
QVQLVESGGGLVQAGGSLRISCAASGFIFASYTMGWYRQAPGKERELVAAISRAGSTYYADSVKGRFTISPDNAKNTVYLQMNSLKPEDTAVYYCNAVSWRTSRYDYWGQGTQVTVSS | high polyreactivity
QVQLVESGGGLVQAGGSLRISCAASGFIFFPYTRGCSRQAPGKLMELVAAITNGGSTSYADSVKGRFTISRDNAKKTGYLQMNSLKPEDTAVYSCAAVLGRNLLHTYYYWGQGTQVTGSS | low polyreactivity
QVQLVESGGGLVQAGGSLRISCAASGFIFRGNTMGWYRQAPGKERELVASITRGGGRTYYADSVKGRFTISRDNAKNTVYLQMNSLKPEDTAVYYCAARTRSDNSYHGGEYWGQGTQVTVSS | high polyreactivity
QVQLVESGGGLVQAGGSLRISCAASGFIFRRYAMGWYRQAPGKERELVAAIRTNSGSTYYADSVKGRFTISRDNAKNTVYLQMNSLKPEDTAVYYCATGQVYRTVSWLYNYWGQGTQVTVSS | high polyreactivity
QVQLVESGGGLVQAGGSLRISCAASGFIFTLYAMGWYRQAPGKERELVAAISKRGGSTNYADSVKGRFTISRDNAKNTVYLLMNSLKPEDTAVYYCANARPGFLYDHWGQGTQLTVSS | high polyreactivity
QVQLVESGGGLVQAGGSLRISCAASGFIFVFYDRGWYRQAPGKEREFVAGITRNDGSTYYADSVKGRFKISRDNAKNTVYLQMNSLKPEDTAVYYCAAADSTWFDWGNYWYYYWGQGTQVTVSS | low polyreactivity
QVQLVESGGGLVQAGGSLRISCAASGFIFYYAMGWYRQAPGKERELVAAISSGSSTYADSVKGRFTISRDNAKNTVYLQMNSMKPEDTAVYYCAAKTQNAYYWGQGTQVTVSS | low polyreactivity
QVQLVESGGGLVQAGGSLRISCAASGFTFAYYAMGRYRQAPGKERELVASITSGGSTYYADSVKGRFTISRDNAKNNVYLQMNSLKPEDTAVYYCAADSSIDYDWGQGTQVTVSS | high polyreactivity
QVQLVESGGGLVQAGGSLRISCAASGFTFRSYVMGWYRQAAGKEWELVAAISSRGSSTSYADSVKGRFTISRDNAKNTVYLQMNSLKPEDTAVYDCAPRLFWRGRKFAYWGQGTQVTVSS | high polyreactivity
QVQLVESGGGLVQAGGSLRISCAASGFTFRWYTMGWYRQAPGKERELVAAISWSGTSTYYADSVKGRFTISRDNAKNTVYLQMNSLKPEDTAVYYCAAADFYYTGADDYWGQGTQVTVSS | high polyreactivity
QVQLVESGGGLVQAGGSLRISCAASGFTFSRNVMGWYRQAPGKERELVADITLSGASTYYADSVKGRFTISRDNAKNTVYLQMNSLNPEDTAGYYCAADPYLWRWGWRHDYWGQGTQVTVSS | low polyreactivity
QVQLVESGGGLVQAGGSLRISCAASGFTFTYYTMGWYRQAPGKERELVAAINRSGTSTYYADSVKGRFTISRDNAKNTVYLQMNSLKPEDTAVYYCAAKFTTGYYYGVPRDYWGQGTQVTVSS | high polyreactivity
QVQLVESGGGLVQAGGSLRISCAASGFTFYNYAMGWYRQAPGKRELVAAITSGGRTNYADSVKGRFTISRDNAKNTVYLQMNSRIPEDTAVYYCNAYPRWKFRSQVYDGWYGRFDYWGQGTQVTVSS | high polyreactivity
QVQLVESGGGLVQAGGSLRISCAASGGIFDTYVMGWYRQAPGKERELVAAISSSGSTTYADSVKGRFTISRDNAKNTVYLQMNSLKPEDTAVYYCNADYSTIWRYDYWGQGTQVTVSS | low polyreactivity
QVQLVESGGGLVQAGGSLRISCAASGGNFRYYTMGWYRQAPGKERELVAAITRGGRTYYADSVKGRFTISRDNAKNTVYIQMNSLKPEDTAVYYCAAVRPRSPVSYENDYWGQGTQVTVSS | high polyreactivity
QVQLVESGGGLVQAGGSLRISCAASGGTFTKNAMGWYRQAPGKERELLAAISWRGTSTYYADSVKGRFTISRDNAKNTVYLQMNSLKPEDTAVYYCNTDRYFRRYYWYDYWGQGTQVTVSS | high polyreactivity

Sequence | polyreactivity (PSR sort gate)
QVQLVESGGGLVQAGGSLRISCAASGIIFKQNVMGWYRQAPGKERELVAAITSRDGSTYYADSVKGRFTISRDNAKNTVYLQMNSLKPEDTAVYYCAANWRSPRYYLYGYWGQGTQVTVSS | high polyreactivity
QVQLVESGGGLVQAGGSLRISCAASGIIFPYAMGWYRQAPGKERELVARITVGSTSYADSVKGRFTISRDNAKNTVYVQMNSLKPEDTAVYYCNKDSGEDDRWPYDYWGQGTQVTVSS | low polyreactivity
QVQLVESGGGLVQAGGSLRISCAASGIIFPYYVMGWYRQAPGKERELVAAINSGGRTYYADSVKGRFTISRDNAKNTVYLQMNSLKPEDTAVYYCARDLYYVYSFAPYRYEYWGQGTQVTVSS | low polyreactivity
QVQLVESGGGLVQAGGSLRISCAASGIIFRGNAMGWYRQAPGKERELVAAISSGGGTYYADSVKGRLTISRDNAKNTVYLQMNSLKPEDTAVYYCNRVRYYQYGYDYWGQGTEVTVSS | high polyreactivity
QVQLVESGGGLVQAGGSLRISCAASGITFPYYAMGWYRQAPGKERELVADITSGGSTNYADSVKGRFTISRDNAKNTVYLQMNSLKPEDTAVYYCAADWYVIYDYWGQGTQVTVSS | low polyreactivity
QVQLVESGGGLVQAGGSLRISCAASGITFRYYAMGWSIQAPGKERELVAAITCNGGGTYADSVKGRFTISRDNAKYTVYLEMNSLKPEDTAVYSCSADYGRRWGYDYWGQGTQVTVSS | low polyreactivity
QVQLVESGGGLVQAGGSLRISCAASGITFWYYAMGWYRQAPGKERELVAAITRSGRTNYADSVKGRFTISRDNAKNTVYLQMNSLKPEDTAVYYCNAASLRYSYTLFDSWGLGTQVTVSS | high polyreactivity
QVQLVESGGGLVQAGGSLRISCAASGITLNVYAMGWYRQAPGKERELVAAISYNGGRTYYADSVKGRFTISRDNAKNTVYLQMNSLKPEDTAVYYCAAQWPWGPYDYWGQGTQVTVSS | high polyreactivity
QVQLVESGGGLVQAGGSLRISCAASGITLYNYPMGWYRQAPGKERELVAAISLSGGRTYYAESVKGRFTISRDNAKNTVYLQMNSLQTEDTAVYYCAADWLNSDPYNYWGQGTQVTVSS | low polyreactivity
QVQLVESGGGLVQAGGSLRISCAASGLILIVYAMGWYRQAPGKERELVAAISSGGITYYADSVKGRFTISRDNAKNTVYLQMNSLKPEDTAVYYCAAESAYWWGDYYYWGQGTQVTVSS | high polyreactivity
QVQLVESGGGLVQAGGSLRISCAASGNAMGWYRQAPGKERELVAVITGGGSTYYADSVKGRFTISRDNAKNTVYLQMNSLKPEDTAVYYCAAKGPYYKSSRTGDYWGQGTQVTVSS | low polyreactivity
QVQLVESGGGLVQAGGSLRISCAASGNILFSYAMGWYRQAPGKERELVAAISRSGGSTYYADSVKGRFTISRDNAKNTVYLQMNSLKPEDTAVYYCNTYSIAYYSPGYDYWGQGTQVTVSS | high polyreactivity
QVQLVESGGGLVQAGGSLRISCAASGNSFVSNVMGWYREAPGKERELVAAISSGGRTYYADSVKGRFTISRDNAKNTVYLQMNSLKPEDTAVYYCAASYKSKYLGGGEYWGQGTQVTLSS | high polyreactivity
QVQLVESGGGLVQAGGSLRISCAASGNTFTRNTMGWYRQAPGKERELVASISLSGASTYYADSVKGRFTISRDNAKNTVYLQMNSLKPEDTAVYYCAARSRQDLEYDYWGQGTQVTVSS | high polyreactivity
QVQLVESGGGLVQAGGSLRISCAASGRIFATNAMGWYRQAPGKERELVAVITGGGDTNYADSVKGRFTISRDNAKNTVYLQMNSLKPEDTAVYYCAAEGSFYRYHVGSDYWGQGTQVTVSS | low polyreactivity
QVQLVESGGGLVQAGGSLRISCAASGRIFERNAMRWYRQAPGKERELVAAITYNGGRTYYADSVKGRFTISRDNAKITVYLQMNSLKPEDTAVYNCNAQSRVTRSSYRGSPRYDFWGQGTQVTVSS | high polyreactivity
QVQLVESGGGLVQAGGSLRISCAASGRIFFTNAMGWYRQAPGKDRELVAAISKSGARTYYADSVKGRFTISRDNAKNTVYLQMNSLKPEDTAVYYCSEFYYWGQGTQVTVSS | high polyreactivity
QVQLVESGGGLVQAGGSLRISCAASGRIFHGNARGWYRPAPGKERELVAAITSGGRTFYADSVKGRFTISRDNAKNTVYLQLHSLKPEDTAVYYCNAPSIAGYAEYNSHDYWGHGTQVTVSS | high polyreactivity
QVQLVESGGGLVQAGGSLRISCAASGRIFRGNALGWYRQAPGTERELVAAITRSGGSTYYADSVKGRFTISRDNAKNTVYLQMNSLKPEDTAVYYCAAGYPYYSYLYDYWGQGTQVSVSS | high polyreactivity
QVQLVESGGGLVQAGGSLRISCAASGRIFYENTMGWYRQAPGKETELVAVITSTGNTNYADSVKGRFTISRDNAKNTVYLQMNSLKPEVTAVYYCAADSPPGGYVFPERPYDYWGQGTQVTVSS | low polyreactivity
